Experimental data taken from patent US20250269018A1, “COMBINED CANCER THERAPY WITH AN EPITHELIAL CELL ADHESION MOLECULE (EPCAM) INHIBITOR AND A HEPATOCYTE GROWTH FACTOR RECEPTOR (HGFR) INHIBITOR” (ACADEMIA SINICA, priority 2021, published 2025).
“Also recorded” adds a separate entry of the source.

Experiments:
[1] = biological target: T1, HGFRECD-c-Myc (extracellular domain of HGFR with c-Myc tag, expressed in HEK293T cells) (UniProt P08581 25-932); experiment: co-IP from transfected HEK293T cells (FIG. 1F)
T1 construct: extracellular domain; also called HGFRECD-c-Myc-tag; not shown: c-Myc tag
T1 sequence (P08581 25-932): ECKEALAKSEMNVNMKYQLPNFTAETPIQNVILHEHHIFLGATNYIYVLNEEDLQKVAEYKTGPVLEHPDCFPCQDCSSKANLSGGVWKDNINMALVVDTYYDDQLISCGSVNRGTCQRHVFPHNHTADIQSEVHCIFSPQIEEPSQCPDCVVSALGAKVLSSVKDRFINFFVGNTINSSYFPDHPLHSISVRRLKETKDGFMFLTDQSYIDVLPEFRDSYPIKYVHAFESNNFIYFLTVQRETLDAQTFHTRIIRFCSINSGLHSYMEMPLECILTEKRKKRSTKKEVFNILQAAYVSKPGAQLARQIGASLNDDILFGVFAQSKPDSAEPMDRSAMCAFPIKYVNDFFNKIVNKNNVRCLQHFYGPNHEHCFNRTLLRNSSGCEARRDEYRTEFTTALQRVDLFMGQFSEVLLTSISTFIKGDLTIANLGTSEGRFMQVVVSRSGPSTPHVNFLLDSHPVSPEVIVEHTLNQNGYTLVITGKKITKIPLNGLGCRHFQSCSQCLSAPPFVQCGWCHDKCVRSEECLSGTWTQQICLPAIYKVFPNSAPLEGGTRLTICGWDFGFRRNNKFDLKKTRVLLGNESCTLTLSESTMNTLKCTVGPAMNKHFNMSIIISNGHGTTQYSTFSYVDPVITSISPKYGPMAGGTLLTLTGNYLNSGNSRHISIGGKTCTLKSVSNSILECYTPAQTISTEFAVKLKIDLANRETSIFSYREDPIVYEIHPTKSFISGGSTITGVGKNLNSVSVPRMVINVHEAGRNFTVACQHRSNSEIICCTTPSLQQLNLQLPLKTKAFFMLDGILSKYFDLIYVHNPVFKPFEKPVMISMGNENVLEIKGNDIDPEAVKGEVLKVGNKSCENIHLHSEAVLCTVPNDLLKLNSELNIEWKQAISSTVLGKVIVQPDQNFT

[2] = biological target: T1, HGFRECD-c-Myc (extracellular domain of …); experiment: co-IP with anti-c-Myc from transfected HEK293T cells (FIG. 1G)
[3] = system: HGFR signaling; experiment: Western blotting of phosphorylated HGFR, AKT, ERK, FAK in HCT116 cells; format: cell-based, human; conditions: HCT116; 10 μg/ml 16 h, then EpEX-His 50 nM 15 min; FIG. 7D
Method: FIGS. 2A to 2K. EpEX promotes tumor progression via HGFR signaling. (FIG. 2A) WT or EpCAM knockout (KO) HCT116 and HT29 cells treated with HGF (0.5 nM) for 15 min. The phosphorylation of HGFR, AKT, and ERK was examined by Western blotting. (FIG. 2B) WT or KO HCT116 and HT29 cells were treated with HGF (0.5 nM) with 2% FBS for the indicated times. Cell growth was examined by the WST-1 assay. (FIG. 2C) Starved HCT116 cells were treated with HGFR inhibitor SU11274 (SU, 10 μM) for 1 h then treated with 50 nM of EpEX-His for 15 min. The levels of phosphorylated HGFR, EGFR, AKT, and ERK were examined by Western blotting. HCT116 and HT29 cells were treated with 50 nM EpEX and SU (10 μM). (FIG. 2D) Cell growth was examined by WST-1 assay after treatment for indicated time. (FIG. 2E) HCT116 cells were treated with shLuc or HGFR shRNA then treated with 50 nM of EpEX-His for 15 min. The levels of phosphorylated HGFR, EGFR, ERK, and AKT were examined in HGFR knockdown HCT116 cells by Western blotting. (FIG. 2F) The levels of phosphorylated ADAM17 and presenilin 2 were examined by Western blotting. (FIG. 2G) Active β-catenin nuclear translocation was assay by using Western blotting. (H) HCT116 cells were treated with shLuc or HGFR shRNA then treated with 50 nM of EpEX-His for indicated times. Cell growth was examined by the WST-1 assay. (FIG. 2I) HCT116 cells after shLuc and shHGFR treatment were treated with 50 nM of EpEX-His with 2% FBS for 7 days. Colony formation was examined by crystal violet staining.
FIGS. 6A to 6J. EpAb2-6 inhibits EpCAM and HGFR signaling and promotes active β-catenin and Snail protein degradation via activating GSK3β. (FIG. 6A) HCT116 cells were treated with 10 μg/ml control IgG (normal mouse IgG, NMIgG) or mouse EpAb2-6 (EpAb2-6) for 16 h, followed by treatment with EpEX-His (50 nM) for 15 min. Levels of phosphorylated HGFR, AKT, FAK, GSK3β, ERK, ADAM17, and presenilin 2 were examined by Western blotting. (FIG. 6B) HCT116 cells were treated with 10 μg/ml control IgG or mouse EpAb2-6 for 16 h, followed by treatment without or with HGF (0.5 nM) for 15 min. Levels of phosphorylated HGFR, AKT, and ERK were examined by Western blotting. HCT116 cells were treated with mouse EpAb2-6 (10 μg/ml) and HGF (0.5 nM). (FIG. 6C) Cell migration was examined by the wound healing assay at the indicated times. (FIG. 6D) Cell invasion was assessed by a Transwell assay with matrigel after 24 h. (FIG. 6E) HCT116 cells were treated with NMIgG or EpAb2-6 for 6 h and then immunoprecipitated with anti-EpCAM (IP: EpCAM) or anti-HGFR (IP: HGFR) antibodies, followed by Western blotting. (FIG. 6F) EpEX-His (2 μg/ml) co-treated with 1 μg IgG or EpAb2-6 was added to HGFR-Fc-coated (1 μg/ml) ELISA plates and detected by TMB colorimetric peroxidase assay. (FIG. 6G) EMT associated protein levels were detected by Western blotting in HCT116 cells treated with NMIgG or EpAb2-6 for 24 h. (FIG. 6H) Protein expression was analyzed by Western blotting in HCT116 cells after treatment with EpAb2-6 and 2 μM GSK3β inhibitor (BIO) for 24 h. Quantification of the normalized protein expression in the bottom panel. (FIG. 6I) HCT116 cells were treated with 10 μM MG132 and EpAb2-6 for 6 h before cell collection and subsequent Western blotting. (FIG. 6J) Stability of Snail protein in HCT116 cells treated with NMIgG or EpAb2-6. Cells were treated with cyclohexamide (CHX) 100 μg/ml at the indicated intervals and subjected to Western blotting.
FIGS. 7A to 7G. EpAb2-6 binds EpEX and induces apoptosis by F(ab′)2 and inhibits regulated intramembrane proteolysis (RIP) activation and HGFR signaling. (FIG. 7A) Binding affinity of IgG EpAb2-6 (mouse) and F(ab′)2 to EpEX-His (1 μg/ml) coated overnight was checked using ELISA (OD450). (FIG. 7B) HCT116 cells were treated with 100 μg/ml control IgG, Fc, or F(ab′)2 of EpAb2-6 for 24 h. The apoptotic and necrotic cells were quantified by fluorescein annexin V-FITC/PI double labeling. […]

[4] = system: ADAM17 and presenilin 2; experiment: Western blotting of RIP proteins ADAM17 and presenilin 2 in HCT116 cells; format: cell-based, human; conditions: 10 μg/ml 16 h, then EpEX-His 50 nM 15 min, FIG. 7E
Method: FIGS. 7A to 7G. EpAb2-6 binds EpEX and induces apoptosis by F(ab′)2 and inhibits regulated intramembrane proteolysis (RIP) activation and HGFR signaling. (FIG. 7A) Binding affinity of IgG EpAb2-6 (mouse) and F(ab′)2 to EpEX-His (1 μg/ml) coated overnight was checked using ELISA (OD450). (FIG. 7B) HCT116 cells were treated with 100 μg/ml control IgG, Fc, or F(ab′)2 of EpAb2-6 for 24 h. The apoptotic and necrotic cells were quantified by fluorescein annexin V-FITC/PI double labeling. (FIG. 7C) HCT116 and HT29 cells were treated with 10 μg/ml control IgG, MT201, humanized EpAb2-6 (hEpAb2-6) or mouse hybridoma EbAb2-6 (mEpAb2-6) for 24 h. The apoptotic and necrotic cells were quantified by fluorescein annexin V-FITC/PI double labeling. (FIG. 7D) HCT116 cells were treated with 10 μg/ml control IgG, MT201, hEpAb2-6 or mEpAb2-6 for 16 h, followed by treatment with EpEX-His (50 nM) for 15 min. Levels of phosphorylated HGFR, AKT, and ERK, and (FIG. 7E) RIP proteins ADAM17 and presenilin 2 were examined by Western blotting. Anti-EpCAM antibody and crizotinib coordinately induces apoptosis in colon cancer cells. (FIG. 7F) HCT116 and HT29 cells were treated with 10 μg/ml NMIgG or EpAb2-6 and 4 μM HGFR inhibitor crizotinib for 24 h. The apoptotic and necrotic cells were quantified by fluorescein annexin V-FITC/PI double labeling. […] Cell invasion was assessed by a Transwell assay with matrigel after 24 h.
Whole cell extracts were prepared with RIPA buffer (50 mM Tris-HCl pH7.4, 1% NP-40, 0.5% Sodium deoxycholate, 0.1% SDS, 150 mM NaCl, 2 mM EDTA, 50 mM NaF). Protein concentrations of the cell lysates were determined by the Bradford assay. […]
Appropriate horseradish peroxidase-associated secondary antibodies (Millipore) were applied and the membranes were incubated at room temperature (RT) for 1 h. The protein bands were subsequently visualized with chemiluminescence reagents (Millipore) and detected on a BioSpectrum 600 Imaging system (UVP). The protein level was quantified from band intensity using Gel-Pro analyzer 3.1 (Media Cybernetics).

[5] = system: HCT116 cells; experiment: Apoptosis assay, annexin V-FITC/PI double labeling, HCT116; format: cell-based, human; conditions: 10 μg/ml 24 h, FIG. 7C
Method: (§1) FIGS. 7A to 7G. EpAb2-6 binds EpEX and induces apoptosis by F(ab′)2 and inhibits regulated intramembrane proteolysis (RIP) activation and HGFR signaling. (FIG. 7A) Binding affinity of IgG EpAb2-6 (mouse) and F(ab′)2 to EpEX-His (1 μg/ml) coated overnight was checked using ELISA (OD450). (FIG. 7B) HCT116 cells were treated with 100 μg/ml control IgG, Fc, or F(ab′)2 of EpAb2-6 for 24 h. The apoptotic and necrotic cells were quantified by fluorescein annexin V-FITC/PI double labeling. (FIG. 7C) HCT116 and HT29 cells were treated with 10 μg/ml control IgG, MT201, humanized EpAb2-6 (hEpAb2-6) or mouse hybridoma EbAb2-6 (mEpAb2-6) for 24 h. The apoptotic and necrotic cells were quantified by fluorescein annexin V-FITC/PI double labeling. (FIG. 7D) HCT116 cells were treated with 10 μg/ml control IgG, MT201, hEpAb2-6 or mEpAb2-6 for 16 h, followed by treatment with EpEX-His (50 nM) for 15 min. Levels of phosphorylated HGFR, AKT, and ERK, and (FIG. 7E) RIP proteins ADAM17 and presenilin 2 were examined by Western blotting. Anti-EpCAM antibody and crizotinib coordinately induces apoptosis in colon cancer cells. (FIG. 7F) HCT116 and HT29 cells were treated with 10 μg/ml NMIgG or EpAb2-6 and 4 μM HGFR inhibitor crizotinib for 24 h. The apoptotic and necrotic cells were quantified by fluorescein annexin V-FITC/PI double labeling. (FIG. 7G) HCT116 and HT29 cells were treated with 10 μg/ml NMIgG or EpAb2-6 and 10 μM HGFR inhibitor crizotinib. Cell invasion was assessed by a Transwell assay with matrigel after 24 h.
(§2) Cells were seeded and treated with 10 μg/ml mAb or inhibitor for 6 h; an unrelated mouse myeloma immunoglobulin used at appropriate dilution served as the IgG2a (Invitrogen #02-6200) isotype control. Apoptotic cells were detected using Annexin V-FITC and PI, and were analyzed using a flow cytometer (BD Immmunocytometry Systems). Early apoptosis was measured with the Annexin V-FITC Apoptosis Detection kit II (BD Pharmingen). Late apoptotic nuclei were detected with propidium iodide (PI) staining.

[6] = system: HT29 cells; experiment: Apoptosis assay, annexin V-FITC/PI double labeling, HT29; format: cell-based, human; conditions: 10 μg/ml 24 h, FIG. 7C
Method: as §1, §2

[7] = biological target: T2, EpCAM (Homo sapiens, UniProt P16422); conditions: other anti-EpCAM antibodies, comparison in the description; cited from earlier work
T2 sequence (P16422 24-314): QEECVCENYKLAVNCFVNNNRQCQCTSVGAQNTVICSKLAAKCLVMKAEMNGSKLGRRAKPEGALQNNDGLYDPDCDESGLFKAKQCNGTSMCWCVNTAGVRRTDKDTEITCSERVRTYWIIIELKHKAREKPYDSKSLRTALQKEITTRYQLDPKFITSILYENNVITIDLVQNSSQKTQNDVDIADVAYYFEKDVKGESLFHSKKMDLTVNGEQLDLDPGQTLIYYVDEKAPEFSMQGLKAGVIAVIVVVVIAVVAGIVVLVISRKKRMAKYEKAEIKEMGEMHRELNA

[8] = system: cancer cells; conditions: comparison in the description; previous work; cited from earlier work

B1: EpCAMΔEGFI-V5 (other)
chain: QEESKLAAKCLVMKAEMNGSKLGRRAKPEGALQNNDGLYDPDCDESGLFKAKQCNGTSMCWCVNTAGVRRTDKDTEITCSERVRTYWIIIELKHKAREKPYDSKSLRTALQKEITTRYQLDPKFITSILYENNVITIDLVQNSSQKTQNDVDIADVAYYFEKDVKGESLFHSKKMDLTVNGEQLDLDPGQTLIYYVDEKAPEFSMQGLKAGVIAVIVVVVIAVVAGIVVLVISRKKRMAKYEKAEIKEMGEMHRELNA
notes: also called EGF like-domain deletion mutant EpCAM-V5; not shown: V5 tag
binding result [1]: binds

B2: EpEXΔEGFII-His (ligand)
chain: QEECVCENYKLAVNCFVNNNRQCQCTSVGAQNTVICSKLAAKSERVRTYWIIIELKHKAREKPYDSKSLRTALQKEITTRYQLDPKFITSILYENNVITIDLVQNSSQKTQNDVDIADVAYYFEKDVKGESLFHSKKMDLTVNGEQLDLDPGQTLIYYVDEKAPEFSMQGLK
notes: EpEX lacking aa 66-135; also called EGF like-domain deletion mutant EpEX-His; soluble EpEX mutant protein; not shown: His tag
binding result [2]: binds

B3: hEpAb2-6: humanized EpAb2-6 (antibody, V domains shown)
VH: VKLQESGPELKKPGETVKISCKASGYTFTDYSMHWVKQAPGKGLKWMGWINTETGEPTYADDFKGRFAFSLETSASTAYLQINNLKNEDTATYFCARTAVYWGQGTTVTVSS
VL: DIQMTQSPSSLSASLGERVSLTCRASQEISVSLSWLQQEPDGTIKRLIYATSTLDSGVPKRFSGSRSGSDYSLTISSLESEDFVDYYCLQYASYPWTFGGGTKLEIKRADAAPTVS
phosphorylation of HGFR, AKT, and ERK [3]: inhibited phosphorylation of HGFR, AKT, and ERK
levels of phosphorylated ADAM17 and presenilin 2 [4]: decreased
apoptosis [5]: inducing apoptosis
apoptosis [6]: inducing apoptosis

B4: edrecolomab: other antibody targeting only the EGF I domain of EpCAM (antibody, chains of the INN, looked up, V domains shown)
VH: QVQLQQSGAELVRPGTSVKVSCKASGYAFTNYLIEWVKQRPGQGLEWIGVINPGSGGTNYNEKFKGKATLTADKSSSTAYMQLSSLTSDDSAVYFCARDGPWFAYWGQGTLVTVSA
VL: NIVMTQSPKSMSMSVGERVTLTCKASENVVTYVSWYQQKPEQSPKLLIYGASNRYTGVPDRFTGSGSATDFTLTISSVQAEDLADYHCGQGYSYPYTFGGGTKLEIK
EpCAM domains bound [7]: target only the well-described EGF I domain of EpCAM; also recorded: binding to domain I only
inducing apoptosis of cancer cells [8]: failing to

B5: EpCAMΔEGFII-V5 (other)
chain: QEECVCENYKLAVNCFVNNNRQCQCTSVGAQNTVICSKLAAKSERVRTYWIIIELKHKAREKPYDSKSLRTALQKEITTRYQLDPKFITSILYENNVITIDLVQNSSQKTQNDVDIADVAYYFEKDVKGESLFHSKKMDLTVNGEQLDLDPGQTLIYYVDEKAPEFSMQGLKAGVIAVIVVVVIAVVAGIVVLVISRKKRMAKYEKAEIKEMGEMHRELNA
notes: as for B1
binding result [1]: binds

B6: EpEXΔEGFI-His (ligand)
chain: QEESKLAAKCLVMKAEMNGSKLGRRAKPEGALQNNDGLYDPDCDESGLFKAKQCNGTSMCWCVNTAGVRRTDKDTEITCSERVRTYWIIIELKHKAREKPYDSKSLRTALQKEITTRYQLDPKFITSILYENNVITIDLVQNSSQKTQNDVDIADVAYYFEKDVKGESLFHSKKMDLTVNGEQLDLDPGQTLIYYVDEKAPEFSMQGLK
notes: EpEX lacking aa 27-59; also called EGF like-domain deletion mutant EpEX-His; soluble EpEX mutant protein; not shown: His tag
binding result [2]: binds
